Values belong to the binder of their own block, whether it stands above or below them.
How the values were obtained:
Assay in all cases: holdup assay
Set-up in all cases: key: below the threshold = too weak to quantify, mostly under pKd 3.1 to 4
APBA1_2, Q02410 = molecular target: T1, APBA1_2, Q02410
T1 sequence (Q02410 742-832, limits assumed, looked up): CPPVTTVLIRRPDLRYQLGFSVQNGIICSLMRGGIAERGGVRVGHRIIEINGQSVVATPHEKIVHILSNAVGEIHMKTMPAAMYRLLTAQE

APBA3_1, O96018 = molecular target: T2, APBA3_1, O96018
T2 sequence (O96018 389-490, limits assumed, looked up): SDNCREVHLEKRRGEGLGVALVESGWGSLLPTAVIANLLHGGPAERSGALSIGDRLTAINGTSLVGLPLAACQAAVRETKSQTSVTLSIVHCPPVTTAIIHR

CASK, O14936 = molecular target: CASK, O14936
Chain of CASK, O14936 (O14936 487-570): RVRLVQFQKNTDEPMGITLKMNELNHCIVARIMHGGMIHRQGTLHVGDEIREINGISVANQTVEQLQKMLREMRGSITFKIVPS

DLG1_3, Q12959 = molecular target: DLG1_3, Q12959
Chain of DLG1_3, Q12959 (Q12959 457-571): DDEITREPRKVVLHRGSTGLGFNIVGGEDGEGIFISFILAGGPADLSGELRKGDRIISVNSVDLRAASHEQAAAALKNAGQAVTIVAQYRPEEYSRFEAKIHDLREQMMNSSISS

DLG3_3, Q92796 = molecular target: T3, DLG3_3, Q92796
T3 sequence (Q92796 374-475, limits assumed, looked up): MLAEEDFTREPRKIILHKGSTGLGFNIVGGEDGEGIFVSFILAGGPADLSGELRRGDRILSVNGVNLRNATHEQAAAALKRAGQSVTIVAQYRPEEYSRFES

DLG4_1, P78352 = molecular target: DLG4_1, P78352
Chain of DLG4_1, P78352 (P78352 62-152): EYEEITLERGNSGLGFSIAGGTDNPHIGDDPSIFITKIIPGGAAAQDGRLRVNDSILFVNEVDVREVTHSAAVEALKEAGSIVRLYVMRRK

FRMPD2_3, Q68DX3 = molecular target: FRMPD2_3, Q68DX3
Chain of FRMPD2_3, Q68DX3 (Q68DX3 1073-1166): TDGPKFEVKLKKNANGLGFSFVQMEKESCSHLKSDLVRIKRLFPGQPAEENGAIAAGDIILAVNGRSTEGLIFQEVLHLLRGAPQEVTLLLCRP

FRMPD3, Q5JV73 = molecular target: FRMPD3, Q5JV73
Chain of FRMPD3, Q5JV73 (Q5JV73 12-100): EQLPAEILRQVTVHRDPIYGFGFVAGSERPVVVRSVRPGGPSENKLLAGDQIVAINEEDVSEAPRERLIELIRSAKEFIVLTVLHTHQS

GOPC, Q9HD26 = molecular target: GOPC, Q9HD26
GRIP2_3, Q9C0E4 = molecular target: GRIP2_3, Q9C0E4
Chain of GRIP2_3, Q9C0E4 (Q9C0E4 238-339): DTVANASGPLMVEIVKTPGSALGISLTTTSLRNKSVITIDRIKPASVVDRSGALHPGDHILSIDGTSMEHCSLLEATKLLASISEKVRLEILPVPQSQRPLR

GRIP2_6, Q9C0E4 = molecular target: GRIP2_6, Q9C0E4
Chain of GRIP2_6, Q9C0E4 (Q9C0E4 648-740): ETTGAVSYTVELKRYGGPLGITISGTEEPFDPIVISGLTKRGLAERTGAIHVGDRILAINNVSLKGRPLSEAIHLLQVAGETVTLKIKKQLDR

Inadl_4, Q8NI35 = molecular target: Inadl_4, Q8NI35
Chain of Inadl_4, Q8NI35 (Q8NI35 547-651): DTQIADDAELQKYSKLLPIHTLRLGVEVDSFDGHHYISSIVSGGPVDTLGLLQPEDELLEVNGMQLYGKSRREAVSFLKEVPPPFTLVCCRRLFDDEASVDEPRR

Inadl_8, Q8NI35 = molecular target: Inadl_8, Q8NI35
Chain of Inadl_8, Q8NI35 (Q8NI35 1425-1530): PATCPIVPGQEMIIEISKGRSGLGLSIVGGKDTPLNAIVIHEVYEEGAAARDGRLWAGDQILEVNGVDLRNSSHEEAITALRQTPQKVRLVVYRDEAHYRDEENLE

LAP2, Q96RT1 = molecular target: LAP2, Q96RT1
Chain of LAP2, Q96RT1 (Q96RT1 other isoform, or with tags, fused parts or gaps): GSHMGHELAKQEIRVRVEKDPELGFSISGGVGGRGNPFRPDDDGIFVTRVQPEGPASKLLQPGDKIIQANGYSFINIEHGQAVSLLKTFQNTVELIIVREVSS

LIMK2, P53671 = molecular target: LIMK2, P53671
Chain of LIMK2, P53671 (P53671 143-248): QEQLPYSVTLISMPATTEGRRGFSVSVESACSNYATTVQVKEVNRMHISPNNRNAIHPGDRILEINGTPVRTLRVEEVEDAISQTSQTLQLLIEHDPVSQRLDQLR

LNX1_1, Q8TBB1 = molecular target: LNX1_1, Q8TBB1
Chain of LNX1_1, Q8TBB1 (Q8TBB1 261-371): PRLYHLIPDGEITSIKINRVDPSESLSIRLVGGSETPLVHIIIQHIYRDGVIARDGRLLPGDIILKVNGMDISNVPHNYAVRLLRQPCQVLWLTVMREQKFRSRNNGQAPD

LNX2_3, Q8N448 = molecular target: T4, LNX2_3, Q8N448
T4 sequence (Q8N448 463-564, limits assumed, looked up): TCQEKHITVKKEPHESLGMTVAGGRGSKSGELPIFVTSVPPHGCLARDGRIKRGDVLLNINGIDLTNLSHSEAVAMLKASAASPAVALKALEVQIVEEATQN

LRRC7, Q96NW7 = molecular target: T5, LRRC7, Q96NW7
T5 sequence (Q96NW7 1440-1537, limits assumed, looked up): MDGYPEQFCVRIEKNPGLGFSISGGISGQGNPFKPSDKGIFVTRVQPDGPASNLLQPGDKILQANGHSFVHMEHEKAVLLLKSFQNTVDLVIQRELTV

NHERF2_2, Q15599 = molecular target: NHERF2_2, Q15599
Chain of NHERF2_2, Q15599 (Q15599 142-238): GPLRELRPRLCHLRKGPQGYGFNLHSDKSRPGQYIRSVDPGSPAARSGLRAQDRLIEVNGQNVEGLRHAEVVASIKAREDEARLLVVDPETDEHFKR

NHERF3_1, Q5T2W1 = molecular target: T6, NHERF3_1, Q5T2W1
T6 sequence (Q5T2W1 4-100, limits assumed, looked up): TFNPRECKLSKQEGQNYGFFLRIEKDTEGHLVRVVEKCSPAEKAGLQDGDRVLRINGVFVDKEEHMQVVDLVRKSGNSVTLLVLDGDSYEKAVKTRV

NHERF3_3, Q5T2W1 = molecular target: T7, NHERF3_3, Q5T2W1
T7 sequence (Q5T2W1 238-333, limits assumed, looked up): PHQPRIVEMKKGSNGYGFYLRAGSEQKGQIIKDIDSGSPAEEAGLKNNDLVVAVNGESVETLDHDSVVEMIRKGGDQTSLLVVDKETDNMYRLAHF

NHERF4_2, Q86UT5 = molecular target: NHERF4_2, Q86UT5
Chain of NHERF4_2, Q86UT5 (Q86UT5 220-308): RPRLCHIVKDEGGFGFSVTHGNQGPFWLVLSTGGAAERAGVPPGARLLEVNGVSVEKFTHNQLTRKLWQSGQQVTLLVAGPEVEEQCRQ

PDZD7_3, Q9H5P4 = molecular target: T8, PDZD7_3, Q9H5P4
T8 sequence (Q9H5P4 857-944, limits assumed, looked up): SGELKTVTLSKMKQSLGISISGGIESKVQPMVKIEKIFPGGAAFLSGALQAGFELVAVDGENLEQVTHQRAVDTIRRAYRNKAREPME

RHPN1, Q8TCX5 = molecular target: T9, RHPN1, Q8TCX5
T9 sequence (Q8TCX5 508-602, limits assumed, looked up): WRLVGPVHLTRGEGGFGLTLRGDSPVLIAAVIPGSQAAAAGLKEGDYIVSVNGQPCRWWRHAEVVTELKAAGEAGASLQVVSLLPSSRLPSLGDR

SHANK1, Q9Y566 = molecular target: T10, SHANK1, Q9Y566
T10 sequence (Q9Y566 658-767, limits assumed, looked up): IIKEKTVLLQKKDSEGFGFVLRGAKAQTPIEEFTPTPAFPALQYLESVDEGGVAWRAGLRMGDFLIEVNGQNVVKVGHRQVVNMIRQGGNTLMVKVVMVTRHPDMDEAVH

TJP2_1, Q9UDY2 = molecular target: TJP2_1, Q9UDY2
Chain of TJP2_1, Q9UDY2 (Q9UDY2 24-128): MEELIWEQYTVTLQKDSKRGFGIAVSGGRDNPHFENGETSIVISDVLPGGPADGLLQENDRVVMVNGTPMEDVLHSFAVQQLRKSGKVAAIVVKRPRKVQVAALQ

TJP3_3, O95049 = molecular target: T11, TJP3_3, O95049
T11 sequence (O95049 375-456, limits assumed, looked up): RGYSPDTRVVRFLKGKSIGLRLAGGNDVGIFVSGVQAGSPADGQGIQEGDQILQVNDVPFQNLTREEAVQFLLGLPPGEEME

[1] = plain residues with an end cap or a label only (N-terminal biotin on a linker: ahx)
[2] = plain residues with an end cap or a label only (N-terminal biotin on a linker: ado-ado)

pKd (APBA1_2, Q02410; [1]): below the threshold
pKd (APBA3_1, O96018; [1]): below the threshold
pKd (CASK, O14936; [1]): below the threshold
pKd (DLG1_3, Q12959; [1]): below the threshold
pKd (DLG3_3, Q92796; [1]): below the threshold
pKd (DLG4_1, P78352; [1]): below the threshold
pKd (FRMPD2_3, Q68DX3; [1]): below the threshold
pKd (FRMPD3, Q5JV73; [1]): below the threshold
pKd (GOPC, Q9HD26; [1]): 3.6
pKd (GRIP2_3, Q9C0E4; [1]): below the threshold
pKd (GRIP2_6, Q9C0E4; [1]): 3.56
pKd (Inadl_4, Q8NI35; [1]): below the threshold
pKd (Inadl_8, Q8NI35; [1]): 3.52
pKd (LAP2, Q96RT1; [1]): below the threshold
pKd (LIMK2, P53671; [1]): below the threshold
pKd (LNX1_1, Q8TBB1; [1]): below the threshold
pKd (LNX2_3, Q8N448; [1]): below the threshold
pKd (LRRC7, Q96NW7; [1]): 3.5
pKd (NHERF2_2, Q15599; [1]): below the threshold
pKd (NHERF3_1, Q5T2W1; [1]): below the threshold
pKd (NHERF3_3, Q5T2W1; [1]): below the threshold
pKd (NHERF4_2, Q86UT5; [1]): below the threshold
pKd (PDZD7_3, Q9H5P4; [1]): 4.71
pKd (RHPN1, Q8TCX5; [1]): below the threshold
pKd (SHANK1, Q9Y566; [1]): below the threshold
pKd (TJP2_1, Q9UDY2; [1]): below the threshold
pKd (TJP3_3, O95049; [1]): below the threshold
B1: PDZRN4, Q6ZMN7 (peptide)
chain: HNAFLSVTTV

pKd (APBA1_2, Q02410; [1]): below the threshold
pKd (APBA3_1, O96018; [1]): below the threshold
pKd (CASK, O14936; [1]): below the threshold
pKd (DLG1_3, Q12959; [1]): below the threshold
pKd (DLG3_3, Q92796; [1]): below the threshold
pKd (DLG4_1, P78352; [1]): below the threshold
pKd (FRMPD2_3, Q68DX3; [1]): below the threshold
pKd (FRMPD3, Q5JV73; [1]): below the threshold
pKd (GOPC, Q9HD26; [1]): below the threshold
pKd (GRIP2_3, Q9C0E4; [1]): below the threshold
pKd (GRIP2_6, Q9C0E4; [1]): below the threshold
pKd (Inadl_4, Q8NI35; [1]): below the threshold
pKd (Inadl_8, Q8NI35; [1]): below the threshold
pKd (LAP2, Q96RT1; [1]): below the threshold
pKd (LIMK2, P53671; [1]): below the threshold
pKd (LNX1_1, Q8TBB1; [1]): below the threshold
pKd (LNX2_3, Q8N448; [1]): below the threshold
pKd (LRRC7, Q96NW7; [1]): below the threshold
pKd (NHERF2_2, Q15599; [1]): below the threshold
pKd (NHERF3_1, Q5T2W1; [1]): below the threshold
pKd (NHERF3_3, Q5T2W1; [1]): below the threshold
pKd (NHERF4_2, Q86UT5; [1]): below the threshold
pKd (PDZD7_3, Q9H5P4; [1]): below the threshold
pKd (RHPN1, Q8TCX5; [1]): below the threshold
pKd (SHANK1, Q9Y566; [1]): below the threshold
pKd (TJP2_1, Q9UDY2; [1]): below the threshold
pKd (TJP3_3, O95049; [1]): below the threshold
B2: NHERF2, Q15599 (peptide)
chain: NRKREIFSNF

pKd (APBA1_2, Q02410; [2]): 4.06
pKd (APBA3_1, O96018; [2]): below the threshold
pKd (CASK, O14936; [2]): below the threshold
pKd (DLG1_3, Q12959; [2]): below the threshold
pKd (DLG3_3, Q92796; [2]): below the threshold
pKd (DLG4_1, P78352; [2]): below the threshold
pKd (FRMPD2_3, Q68DX3; [2]): below the threshold
pKd (FRMPD3, Q5JV73; [2]): below the threshold
pKd (GOPC, Q9HD26; [2]): below the threshold
pKd (GRIP2_3, Q9C0E4; [2]): below the threshold
pKd (GRIP2_6, Q9C0E4; [2]): below the threshold
pKd (Inadl_4, Q8NI35; [2]): below the threshold
pKd (Inadl_8, Q8NI35; [2]): below the threshold
pKd (LAP2, Q96RT1; [2]): below the threshold
pKd (LIMK2, P53671; [2]): below the threshold
pKd (LNX1_1, Q8TBB1; [2]): below the threshold
pKd (LNX2_3, Q8N448; [2]): below the threshold
pKd (LRRC7, Q96NW7; [2]): below the threshold
pKd (NHERF2_2, Q15599; [2]): 3.86
pKd (NHERF3_1, Q5T2W1; [2]): 3.53
pKd (NHERF3_3, Q5T2W1; [2]): below the threshold
pKd (NHERF4_2, Q86UT5; [2]): below the threshold
pKd (PDZD7_3, Q9H5P4; [2]): 4.04
pKd (RHPN1, Q8TCX5; [2]): below the threshold
pKd (SHANK1, Q9Y566; [2]): below the threshold
pKd (TJP2_1, Q9UDY2; [2]): below the threshold
pKd (TJP3_3, O95049; [2]): below the threshold
B3: TRIM50, Q86XT4 (peptide)
chain: PLSPEQPTKL

From article PMC9482650, “Quantitative fragmentomics allow affinity mapping of interactomes” (Nature Communications, 2022)
